The text below walks through data of patent publication US20250250357A1 (NANJING ZAIMING PHARMACEUTICAL, published 2025).

B1: S009-F2.16.10 (antibody, human IgG1, kappa, V domains shown)
VH: QVQLQQPGAELIKPGASVKLSCKASGYTFTSYWMHWVKQRPGQGLEWIGIIHPNIGSTNYNERFKSKATLTVDKSSSTAYMQLSSLTSEDSAVYYCARRSSNYGDWYFDVWGTGTTVTVSS
VL: DIVMTQSHRFMSTSVGDRVSITCKASQDVGTSVAWYQQKPGQSPKLLIYWASTQHTGVPDRFTGSGSGTDFTLTINNVQSEDLLDYFCQQYSSYPLTFGAGTKLELKR
notes: Human-murine chimeric antibody: murine VH/VL on human IgG1 heavy and kappa light constant regions
B2: S009-F2.13.3 (antibody, human IgG1, kappa, V domains shown)
VH: QVQLQQSGAELMKPGASVKLSCKATGYTFTGYWIEWVKQRPGHGLEWIGEILPGSGSTNYNEKFKGKATFTADTSSNTAYMQLSSLTTEDSAIYYCARAGAWFAYWGQGTLVTVSA
VL: QIVLTQSPAIMSASLGERVTMTCTASSSVSSSYLHWYQQKPGSSPKLWTYSTSNLASGVPARFSGSGSGTSYSLTISSMEAEDAATYYCHQYHRSPWTFGGGTKLEIKR
notes: as for B1
B3: S009-F2.17.3 (antibody, human IgG1, kappa, V domains shown)
VH: QVQLQQPGTELVTPGASVKLSCKASGYSFTSYWMHWVKQRPGQGLEWIGNINPSNGDTFYNEKFKNKATLTVDKSSSTAYMQLSSLTSEDSAVYYCARGWLRDYWGQGTTLTVSS
VL: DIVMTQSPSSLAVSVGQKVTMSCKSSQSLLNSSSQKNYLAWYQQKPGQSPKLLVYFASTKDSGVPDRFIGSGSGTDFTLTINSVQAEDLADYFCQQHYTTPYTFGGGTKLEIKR
notes: as for B1

In the first test the target is T1, human MSLN-R3-3 polypeptide (human).
T1 construct: also called human MSLN-R3-3 protein; hMSLN-R3-3
The test is described as follows: ELISA on coated antigen, no antibody (column none). For orientation: An ELISA detects its analyte on a solid surface through an enzyme-linked reagent.
Description: (§1) The plate was sealed with a plastic film and incubated at 4° C. overnight. The next day, the plate was washed twice with PBST, and a blocking buffer [PBS+2% (w/w) BSA] was added for blocking at room temperature for 2 h. The blocking buffer was discarded, and a chimeric antibody or negative control antibody serially diluted from 100 nM was added at 50 μL/well. After incubation at 37° C. for 2 h, the plate was washed 3 times with PBST. […] After incubation at 37° C. for 2 h, the plate was washed 5 times with PBST. A TMB substrate was added at 50 μL/well for incubation at room temperature for 5-10 min, and then a stop solution (1.0 N HCl) was added at 50 μL/well.
Regarding B1, the OD450 was found to be 0.05 OD450.
Same read-out and setting: the same measure for B2: 0.05 OD450; for B3: 0.05 OD450.

The target in another test is T2, human MSLN-R2-his protein (human, UniProt Q13421 391-486).
T2 construct: Self-made in HEK293E cells; also called human MSLN-R2 protein; hMSLN-R2-his; not shown: His tag
T2 sequence (Q13421 other isoform, or with tags, fused parts or gaps): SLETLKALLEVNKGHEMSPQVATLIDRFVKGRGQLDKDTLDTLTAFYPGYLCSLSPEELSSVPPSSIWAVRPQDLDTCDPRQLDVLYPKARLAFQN
The test is described as follows: ELISA on coated antigen, antibody 1 nM.
On to B1, for which the OD450 worked out at 0.05 OD450.
The same measure, in the same setting: under B2 stands 0.05 OD450.
B3: the OD450 is 0.05 OD450.

In another test the target is T1, human MSLN-R3-3 polypeptide. The test is described as follows: ELISA on coated antigen, antibody 0.001 nM.
Description: as §1
B1 gave an OD450 of 0.05 OD450.
Still for that read-out and setting: the same measure for B2: 0.05 OD450.
Consider B3, for which the OD450 was found to be 0.05 OD450.

The target of another test is T3, human MSLN-R3-his protein (human, UniProt Q13421 487-598).
T3 construct: Self-made in HEK293E cells; also called human MSLN-R3 protein; hMSLN-R3-his; not shown: His tag
T3 sequence (Q13421 495-606): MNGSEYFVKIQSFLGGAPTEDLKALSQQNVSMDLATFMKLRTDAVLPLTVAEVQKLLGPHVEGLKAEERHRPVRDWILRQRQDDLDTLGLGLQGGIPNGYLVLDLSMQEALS
Kind of test: ELISA on coated antigen, antibody 1 nM.
For B1, the OD450 is 0.05 OD450.
Same read-out and setting: the same measure for B2: 0.05 OD450.
Same read-out and setting: the same measure for B3: 0.29 OD450.

In the next test the target is T3, human MSLN-R3-his protein. The test is described as follows: ELISA on coated antigen, no antibody (column none).
Description: as §1
B1 displayed an OD450 of 0.06 OD450.
Still for that read-out and setting: under B2 stands 0.06 OD450.
As for B3, the OD450 was found to be 0.06 OD450.

Another test deals with T1, human MSLN-R3-3 polypeptide. The test is described as follows: ELISA on coated antigen, antibody 10 nM.
Description: as §1
In turn, B1 yielded an OD450 of 0.05 OD450.
Same read-out and setting: the same measure for B2: 0.07 OD450; for B3: 0.05 OD450.

For another test, the target named is T3, human MSLN-R3-his protein. Kind of test: ELISA on coated antigen, antibody 100 nM.
Description: as §1
Turning to B1, the OD450 stood at 0.06 OD450.
On the same count and under the same terms, the same measure for B2: 0.06 OD450.
As to B3, the OD450 is 2.3 OD450.

The next test deals with T2, human MSLN-R2-his protein. Kind of test: ELISA on coated antigen, antibody 100 nM.
Description: as §1
B1 showed an OD450 of 0.05 OD450.
Regarding B2, the OD450 stood at 0.07 OD450.
Molecule B3 returned an OD450 of 0.06 OD450.

A further test deals with T3, human MSLN-R3-his protein. The test is described as follows: ELISA on coated antigen, antibody 0.001 nM.
Description: as §1
B1 came in with an OD450 of 0.05 OD450.
Still for that read-out and setting: the same measure for B2: 0.06 OD450; for B3: 0.05 OD450.

A further test addresses T2, human MSLN-R2-his protein. The test is described as follows: ELISA on coated antigen, antibody 0.0001 nM.
Description: as §1
With B1, the OD450 stood at 0.05 OD450.
On the same count and under the same terms, under B2 stands 0.06 OD450; under B3, 0.05 OD450.

In another test the target is T1, human MSLN-R3-3 polypeptide. Kind of test: ELISA on coated antigen, antibody 100 nM.
Description: as §1
On to B1, for which the OD450 is 0.05 OD450.
Take B2: the OD450 was found to be 0.06 OD450.
On the same count and under the same terms, the same measure for B3: 0.05 OD450.

The target is the same in another test. Kind of test: ELISA on coated antigen, antibody 0.01 nM.
Description: as §1
In turn, B1 returned an OD450 of 0.05 OD450.
The same measure, in the same setting: under B2 stands 0.05 OD450.
Molecule B3 gave an OD450 of 0.05 OD450.

A further test concerns the target T2, human MSLN-R2-his protein. The test is described as follows: ELISA on coated antigen, antibody 0.01 nM.
Description: as §1
As for B1, the OD450 was 0.05 OD450.
On the same count and under the same terms, the same measure for B2: 0.05 OD450.
On the same count and under the same terms, the same measure for B3: 0.05 OD450.

Another test deals with T2, human MSLN-R2-his protein. Kind of test: ELISA on coated antigen, no antibody (column none).
Description: as §1
The molecule B1 returned an OD450 of 0.06 OD450.
Still for that read-out and setting: the same measure for B2: 0.06 OD450; for B3: 0.06 OD450.

In a further test the target is T1, human MSLN-R3-3 polypeptide. Kind of test: ELISA on coated antigen, antibody 0.0001 nM.
Description: as §1
Turning to B1, the OD450 came out at 0.05 OD450.
On the same count and under the same terms, under B2 stands 0.05 OD450; under B3, 0.05 OD450.

The target is the same in a further test. Kind of test: ELISA on coated antigen, antibody 1 nM.
Description: as §1
Turning to B1, the OD450 came out at 0.05 OD450.
As to B2, the OD450 is 0.05 OD450.
The same measure, in the same setting: the same measure for B3: 0.05 OD450.

The target is the same in the next test. Kind of test: ELISA on coated antigen, antibody 0.1 nM.
Description: as §1
Take B1: the OD450 was 0.05 OD450.
B2 returned an OD450 of 0.05 OD450.
Take B3: the OD450 came out at 0.05 OD450.

In a further test the target is T2, human MSLN-R2-his protein. Kind of test: ELISA on coated antigen, antibody 10 nM.
Description: as §1
For the molecule B1, the OD450 was 0.05 OD450.
In the case of B2, the OD450 came to 0.06 OD450.
As for B3, the OD450 was found to be 0.05 OD450.

The next test addresses T3, human MSLN-R3-his protein. Kind of test: ELISA on coated antigen, antibody 0.01 nM.
Description: as §1
On to B1, for which the OD450 was 0.05 OD450.
In the case of B2, the OD450 was 0.05 OD450.
On the same count and under the same terms, under B3 stands 0.05 OD450.

A further test concerns the target T3, human MSLN-R3-his protein. Kind of test: ELISA on coated antigen, antibody 10 nM.
Description: as §1
On to B1, for which the OD450 was 0.05 OD450.
As for B2, the OD450 stood at 0.06 OD450.
The molecule B3 had an OD450 of 1.19 OD450.

The next test has as its target T2, human MSLN-R2-his protein. Kind of test: ELISA on coated antigen, antibody 0.1 nM.
Description: as §1
The molecule B1 yielded an OD450 of 0.05 OD450.
On the same count and under the same terms, the same measure for B2: 0.05 OD450; for B3: 0.05 OD450.

Another test has as its target T2, human MSLN-R2-his protein. The test is described as follows: ELISA on coated antigen, antibody 0.001 nM.
Description: as §1
For the molecule B1, the OD450 was determined as 0.05 OD450.
Same read-out and setting: the same measure for B2: 0.05 OD450; for B3: 0.05 OD450.

In the next test the target is T3, human MSLN-R3-his protein. Kind of test: ELISA on coated antigen, antibody 0.0001 nM.
Description: as §1
Turning to B1, the OD450 turned out to be 0.05 OD450.
The same measure, in the same setting: the same measure for B2: 0.05 OD450; for B3: 0.05 OD450.

The target of another test is T3, human MSLN-R3-his protein. The test is described as follows: ELISA on coated antigen, antibody 0.1 nM.
Description: as §1
Take B1: the OD450 was found to be 0.05 OD450.
On the same count and under the same terms, the same measure for B2: 0.05 OD450; for B3: 0.07 OD450.
